From patent US20230087785A1, “Leucine-Rich Repeat Kinase 2 Allosteric Modulators” (VIB VZW, priority 2020, published 2023)

T1: LRRK2 Roc domain construct (human, UniProt Q5S007 1329-1520)
T1 construct: not shown: N-terminal His6-tag of pET-28a
T1 sequence: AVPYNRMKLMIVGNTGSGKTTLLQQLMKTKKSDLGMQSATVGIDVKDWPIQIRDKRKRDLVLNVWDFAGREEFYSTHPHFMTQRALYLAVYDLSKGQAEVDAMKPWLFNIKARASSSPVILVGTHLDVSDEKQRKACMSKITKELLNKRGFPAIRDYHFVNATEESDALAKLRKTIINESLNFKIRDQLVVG

T2: LRRK2 RocCOR domain construct (human, UniProt Q5S007 1334-1840)
T2 construct: A second construct (residues 1293-1840, N-terminal His6-MBP) was used in certain screening experiments; not shown: N-terminal Twin-Strep-tag; C-terminal His10-tag
T2 sequence: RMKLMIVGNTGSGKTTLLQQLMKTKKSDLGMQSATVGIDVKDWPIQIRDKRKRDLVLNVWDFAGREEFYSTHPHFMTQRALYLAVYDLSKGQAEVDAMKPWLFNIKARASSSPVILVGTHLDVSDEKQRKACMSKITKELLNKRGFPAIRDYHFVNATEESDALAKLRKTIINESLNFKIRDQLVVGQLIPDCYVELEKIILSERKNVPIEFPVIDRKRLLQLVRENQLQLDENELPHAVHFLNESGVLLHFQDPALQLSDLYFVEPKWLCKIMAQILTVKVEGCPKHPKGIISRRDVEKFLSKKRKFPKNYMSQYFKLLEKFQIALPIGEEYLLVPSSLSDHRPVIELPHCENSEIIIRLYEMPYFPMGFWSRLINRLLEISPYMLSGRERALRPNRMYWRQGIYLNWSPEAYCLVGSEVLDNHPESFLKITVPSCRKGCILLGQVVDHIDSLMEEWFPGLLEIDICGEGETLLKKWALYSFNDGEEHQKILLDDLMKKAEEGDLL


Legend:
endogenous LRRK2 = target: T3, endogenous LRRK2 (Mus musculus, UniProt Q5S006); assay: Colocalization of GFP-Nbs with endogenous LRRK2 on zymosan-containing phagosomes in RAW264.7 cells; type: cell-based; conditions: RAW264.7 cells transfected with GFP-Nbs, zymosan 30 mins, fixed cells
T3 construct: endogenous in cells; host or cells: RAW264.7
Experimental: RAW264.7 cells were transfected with GFP-fused Nbs and treated with Zymosan for 30 mins. Recruitment of LRRK2 and Nbs to the phagosomes was analyzed by immunofluorescence. FIG. 16A, images for Nb38, Nb22, Nb23, Nb40, No Nb, or Irrelevant (IRR) Nb treatments; FIG. 16B, images for Nb36, Nb42, Nb17, Nb39, Nb1, and Nb6 treatments. Scale bar=10 μm.
To test whether Nbs can trace and visualize endogenous LRRK2 in fixed cells, we generated green fluorescent protein (GFP)-Nb fusions (fluobodies) as described before. Recently, it was shown that LRRK2 is recruited to phagosomes upon induction of phagocytosis in immune cells. Therefore, RAW264.7 cells were transfected with these fluobodies and treated with killed yeast bioparticles “zymosan” to induce phagocytosis.
RAW264.7 cells (ATCC® SC-6003™) were transfected with peGFP-Nb constructs using JetOPTIMUS (Polyplus transfection) for 24 hrs and then stimulated with Zymosan particles (Sigma Aldrich) for 30 mins ([…]). Immunostaining for LRRK2 was performed as reported before. Briefly, cells fixed with 4% (w/v) paraformaldehyde for 30 min, followed by treatment with 100% EtOH at −20° C. Sampled were permeabilized with PBS/0.5% Triton X-100 and blocked with 3% BSA. Primary antibodies (rabbit anti-LRRK2, c41-2, Abcam and mouse anti-GFP, G6539, Sigma Aldrich) were diluted in PBS containing 3% BSA and 0.5% Triton X-100 and incubated overnight at 4° C. After three 5-min washes with PBS, secondary fluorescently labeled antibodies (anti-rabbit-Alexa fluor 568 and anti-mouse-Alexa fluor 488, Invitrogen) were added in a similar manner to primary antibodies and incubated for 1 hour at room temperature. Cells were washed twice with 1×PBS and mounted with Fluroshield antifade reagent with DAPI (SigmaAldrich). Images were acquired on Zeiss LSM800 confocal laser scanning microscope. Image analysis of z-scan was done using the Zeiss microscope software ZEN.

LRRK2(G2019S) = target: T4, LRRK2(G2019S) (Homo sapiens, UniProt Q5S007, G2019S/M2397T/R50H); assay: In cellulo phospho-Rab / LRRK2 autophosphorylation assay in HEK293T cells; type: cell-based; parameters: key to Functional Group (see FIG. 2d): Group 1: group 1: Nbs that inhibit both LRRK2 autophosphorylation and Rab10 phosphorylation in cells; Group 2: group 2: Nbs that inhibit only Rab10 phosphorylation; Group 3: group 3: Nbs that activate LRRK2 kinase activity; Group 4: group 4: Nbs that have no consistent/clear effect on LRRK2 kinase activity
T4 construct: SF tag (FLAG + Twin-Strep); expressed in transfected cells; host or cells: HEK 293T
T4 sequence (Q5S007 whole entry R50H/G2019S/M2397T): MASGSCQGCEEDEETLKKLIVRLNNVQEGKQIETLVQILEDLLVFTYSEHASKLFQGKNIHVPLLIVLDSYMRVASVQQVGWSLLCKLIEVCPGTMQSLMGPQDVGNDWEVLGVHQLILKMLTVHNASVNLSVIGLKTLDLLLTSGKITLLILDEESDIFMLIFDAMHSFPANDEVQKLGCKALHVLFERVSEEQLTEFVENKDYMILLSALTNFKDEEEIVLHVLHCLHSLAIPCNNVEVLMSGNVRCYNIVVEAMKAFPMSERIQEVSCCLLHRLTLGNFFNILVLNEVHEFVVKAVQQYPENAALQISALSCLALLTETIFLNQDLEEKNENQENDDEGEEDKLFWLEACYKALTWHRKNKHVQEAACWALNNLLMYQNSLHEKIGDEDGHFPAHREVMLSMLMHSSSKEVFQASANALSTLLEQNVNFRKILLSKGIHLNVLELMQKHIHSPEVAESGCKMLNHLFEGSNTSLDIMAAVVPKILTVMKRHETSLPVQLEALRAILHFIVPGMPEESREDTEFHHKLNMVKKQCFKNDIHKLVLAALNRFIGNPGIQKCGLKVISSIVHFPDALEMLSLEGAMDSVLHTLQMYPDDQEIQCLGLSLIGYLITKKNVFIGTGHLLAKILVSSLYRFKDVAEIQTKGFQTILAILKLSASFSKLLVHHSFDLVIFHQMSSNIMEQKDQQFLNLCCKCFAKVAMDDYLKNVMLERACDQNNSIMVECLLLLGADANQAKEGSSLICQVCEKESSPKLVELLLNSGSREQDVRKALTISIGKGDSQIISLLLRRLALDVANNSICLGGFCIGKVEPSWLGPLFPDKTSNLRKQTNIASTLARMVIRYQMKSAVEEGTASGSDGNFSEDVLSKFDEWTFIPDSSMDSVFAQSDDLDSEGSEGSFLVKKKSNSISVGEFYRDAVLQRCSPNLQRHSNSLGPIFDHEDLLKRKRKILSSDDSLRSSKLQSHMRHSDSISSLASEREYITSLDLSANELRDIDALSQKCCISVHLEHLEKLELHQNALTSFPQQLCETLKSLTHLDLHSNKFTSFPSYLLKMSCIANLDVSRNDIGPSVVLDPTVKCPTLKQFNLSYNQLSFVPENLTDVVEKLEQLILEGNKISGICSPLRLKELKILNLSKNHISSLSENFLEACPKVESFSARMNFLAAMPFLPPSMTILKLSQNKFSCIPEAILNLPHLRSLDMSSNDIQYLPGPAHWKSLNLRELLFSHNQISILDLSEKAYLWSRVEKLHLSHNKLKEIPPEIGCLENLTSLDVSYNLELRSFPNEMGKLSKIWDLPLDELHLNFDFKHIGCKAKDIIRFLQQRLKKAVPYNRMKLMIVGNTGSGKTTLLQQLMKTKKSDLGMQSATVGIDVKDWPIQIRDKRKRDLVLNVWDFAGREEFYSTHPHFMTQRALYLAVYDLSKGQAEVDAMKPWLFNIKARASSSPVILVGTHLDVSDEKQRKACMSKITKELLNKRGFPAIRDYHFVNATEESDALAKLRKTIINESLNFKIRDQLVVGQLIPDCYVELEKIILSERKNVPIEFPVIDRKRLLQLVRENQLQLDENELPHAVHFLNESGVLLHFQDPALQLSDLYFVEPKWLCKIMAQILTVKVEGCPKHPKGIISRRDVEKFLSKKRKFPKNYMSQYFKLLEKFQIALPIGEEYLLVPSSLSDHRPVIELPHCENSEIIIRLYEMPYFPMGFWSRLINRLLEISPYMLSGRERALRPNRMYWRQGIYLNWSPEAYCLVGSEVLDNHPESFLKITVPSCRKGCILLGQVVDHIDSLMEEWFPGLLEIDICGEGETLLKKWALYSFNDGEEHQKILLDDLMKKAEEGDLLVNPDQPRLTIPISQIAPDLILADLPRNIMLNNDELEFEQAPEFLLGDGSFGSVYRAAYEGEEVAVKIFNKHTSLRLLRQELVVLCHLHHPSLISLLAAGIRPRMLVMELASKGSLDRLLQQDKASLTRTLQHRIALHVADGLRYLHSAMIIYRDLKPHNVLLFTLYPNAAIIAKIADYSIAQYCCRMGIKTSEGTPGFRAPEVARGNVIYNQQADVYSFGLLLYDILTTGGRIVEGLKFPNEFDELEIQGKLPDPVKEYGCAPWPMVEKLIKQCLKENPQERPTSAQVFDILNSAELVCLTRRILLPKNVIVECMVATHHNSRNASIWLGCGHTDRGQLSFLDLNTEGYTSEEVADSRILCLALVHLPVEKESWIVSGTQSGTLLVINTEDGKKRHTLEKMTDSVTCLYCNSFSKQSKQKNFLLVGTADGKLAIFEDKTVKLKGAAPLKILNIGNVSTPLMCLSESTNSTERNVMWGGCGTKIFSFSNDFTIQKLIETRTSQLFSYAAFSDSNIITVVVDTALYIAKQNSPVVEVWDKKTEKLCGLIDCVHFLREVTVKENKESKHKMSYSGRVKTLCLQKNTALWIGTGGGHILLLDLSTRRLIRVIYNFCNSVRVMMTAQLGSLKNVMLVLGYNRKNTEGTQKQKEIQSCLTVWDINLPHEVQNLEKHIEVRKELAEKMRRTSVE
Experimental: (FIGS. 2A-2C) LRRK2(G2019S) and its effector Rab29 were overexpressed together with GFP-fused Nbs (“Fluobody”) in HEK293T cells. A negative control, where no Nb is overexpressed (“No Nb”) is also included. […] In rows labeled “pLRRK2”, LRRK2 pS1292 levels are determined by Western Blot using a site-specific anti-pLRRK2(pS1292) antibody (Abcam, ab203181) (shown at different times of development). In the rows labeled “pRAB10”, endogenous pT72-Rab10 levels are determined by Western Blot using the MJFF/Abcam antibody MJF-R21 (Abcam, ab230261) (shown at different times of development). The three lower rows contain controls of LRRK2 (rat anti-LRRK2, 24D8), Fluobody (rat anti-GFP) and Rab10 (rabbit anti-Rab10) expression levels. (FIG. 2D) Based on the results of panels (FIGS. 2A-2C) the Nbs can be divided into 4 functional groups, with group 1: Nbs that inhibit both LRRK2 autophosphorylation and Rab10 phosphorylation in cells; group 2: Nbs that inhibit only Rab10 phosphorylation; group 3: Nbs that activate LRRK2 kinase activity; group 4: Nbs that have no consistent/clear effect on LRRK2 kinase activity.
To assess the influence of the Nbs on LRRK2 kinase activity we monitored two physiologically and disease relevant activities of LRRK2: phosphorylation of the endogenous substrate Rab10 at position T72 and LRRK2 autophosphorylation at position S1292 [25-30]. […] In our cellular assay we thus co-expressed LRRK2(G2019S), Rab29 and the different Nb-GFP fusions in HEK 293T cells (FIG. 2a-c).
HEK 293T cells were cultured in DMEM (supplemented with 10% Fetal Bovine Serum, […] L-Glutamine and 0.5% Pen/Strep). For the assay, the cells were seeded onto six-well plates and transfected at a confluency of 50-70% with the individual Nb-GFP expression constructs, SF-tagged LRRK2(G2019S) and FLAG-HA Rab29 using a self-made polyethylenimine (PEI)-based transfection reagent. After 48 hrs cells were lysed in lysis buffer [30 mM Tris-HCL (pH7.4), 150 mM NaCl, 0.5% Nonident-P40, complete protease inhibitor cocktail, phosphatase inhibitor cocktail II & III (all Sigma)]. Lysates were cleared by centrifugation at 10,000×g and adjusted to a protein concentration of 1 μg/μl in 1× Laemmli Buffer. Samples were subsequently subjected to SDS PAGE and Western Blot analysis to determine LRRK2 pS1292 and Rab10 T72 phosphorylation levels, as described below. Total LRRK2 and Rab10 levels were determined as a reference.
For western blot analysis, protein samples were separated by SDS-PAGE using NuPAGE 10% Bis-Tris gels (Invitrogen) and transferred onto PVDF membranes (Thermo Fisher). To allow simultaneous probing for LRRK2 on the one hand and Rab and the Nb-GFP fusions on the other hand, membranes were cut horizontally at the 140 kDa MW marker band. After blocking non-specific binding sites with 5% non-fat dry milk in TBST (1 h, RT) (25 mM Tris, pH 7.4, 150 mM NaCl, 0.1% Tween-20), membranes were incubated overnight at 4° C. with primary antibodies at dilutions specified below. Phospho-specific antibodies were diluted in TBST/5% BSA (Roth GmbH). Non-phospho-specific antibodies were diluted in TBST/5% non-fat dry milk powder (BioRad). Phospho-Rab10 levels were determined by the site-specific rabbit monoclonal antibody anti-pRAB10([…]) (Abcam, ab230261) and LRRK2 autophosphorylation was determined by the site-specific rabbit monoclonal antibody anti-pLRRK2(pS1292) (Abcam, ab203181), both at a dilution of 1:2,000. Total LRRK2 levels were determined by the in-house rat monoclonal antibody anti-pan-LRRK2 (clone 24D8; 1:10,000). Total Rab10 levels were determined by the rabbit monoclonal antibody anti-RAB10/ERP13424 (Abcam, ab181367) at a dilution of 1:5,000. Nb-GFP fusion proteins were detected using the rat monoclonal antibody anti-GFP (clone 3H9, ChromoTec) at a dilution of 1:2,000. For detection, goat anti-rat IgG or anti-rabbit IgG HRP-coupled secondary antibodies (Jackson ImmunoResearch) were used at a dilution of 1:15,000 in TBST/5% non-fat dry milk powder. […]

[1] = target: T5, Full-length human Leucine-rich repeat kinase 2 (LRRK2), N-terminal Strep/Flag (SF) tagged (human, UniProt Q5S007 1-2527); assay: MST; LRRK2 titrated to m-TAMRA-labelled Nb, 500 µM GDP
T5 construct: Purified from HEK293T cells in presence of GDP or GTPγS; also called FL LRRK2; FL-LRRK2
T5 sequence (Q5S007 other isoform, or with tags, fused parts or gaps limits assumed): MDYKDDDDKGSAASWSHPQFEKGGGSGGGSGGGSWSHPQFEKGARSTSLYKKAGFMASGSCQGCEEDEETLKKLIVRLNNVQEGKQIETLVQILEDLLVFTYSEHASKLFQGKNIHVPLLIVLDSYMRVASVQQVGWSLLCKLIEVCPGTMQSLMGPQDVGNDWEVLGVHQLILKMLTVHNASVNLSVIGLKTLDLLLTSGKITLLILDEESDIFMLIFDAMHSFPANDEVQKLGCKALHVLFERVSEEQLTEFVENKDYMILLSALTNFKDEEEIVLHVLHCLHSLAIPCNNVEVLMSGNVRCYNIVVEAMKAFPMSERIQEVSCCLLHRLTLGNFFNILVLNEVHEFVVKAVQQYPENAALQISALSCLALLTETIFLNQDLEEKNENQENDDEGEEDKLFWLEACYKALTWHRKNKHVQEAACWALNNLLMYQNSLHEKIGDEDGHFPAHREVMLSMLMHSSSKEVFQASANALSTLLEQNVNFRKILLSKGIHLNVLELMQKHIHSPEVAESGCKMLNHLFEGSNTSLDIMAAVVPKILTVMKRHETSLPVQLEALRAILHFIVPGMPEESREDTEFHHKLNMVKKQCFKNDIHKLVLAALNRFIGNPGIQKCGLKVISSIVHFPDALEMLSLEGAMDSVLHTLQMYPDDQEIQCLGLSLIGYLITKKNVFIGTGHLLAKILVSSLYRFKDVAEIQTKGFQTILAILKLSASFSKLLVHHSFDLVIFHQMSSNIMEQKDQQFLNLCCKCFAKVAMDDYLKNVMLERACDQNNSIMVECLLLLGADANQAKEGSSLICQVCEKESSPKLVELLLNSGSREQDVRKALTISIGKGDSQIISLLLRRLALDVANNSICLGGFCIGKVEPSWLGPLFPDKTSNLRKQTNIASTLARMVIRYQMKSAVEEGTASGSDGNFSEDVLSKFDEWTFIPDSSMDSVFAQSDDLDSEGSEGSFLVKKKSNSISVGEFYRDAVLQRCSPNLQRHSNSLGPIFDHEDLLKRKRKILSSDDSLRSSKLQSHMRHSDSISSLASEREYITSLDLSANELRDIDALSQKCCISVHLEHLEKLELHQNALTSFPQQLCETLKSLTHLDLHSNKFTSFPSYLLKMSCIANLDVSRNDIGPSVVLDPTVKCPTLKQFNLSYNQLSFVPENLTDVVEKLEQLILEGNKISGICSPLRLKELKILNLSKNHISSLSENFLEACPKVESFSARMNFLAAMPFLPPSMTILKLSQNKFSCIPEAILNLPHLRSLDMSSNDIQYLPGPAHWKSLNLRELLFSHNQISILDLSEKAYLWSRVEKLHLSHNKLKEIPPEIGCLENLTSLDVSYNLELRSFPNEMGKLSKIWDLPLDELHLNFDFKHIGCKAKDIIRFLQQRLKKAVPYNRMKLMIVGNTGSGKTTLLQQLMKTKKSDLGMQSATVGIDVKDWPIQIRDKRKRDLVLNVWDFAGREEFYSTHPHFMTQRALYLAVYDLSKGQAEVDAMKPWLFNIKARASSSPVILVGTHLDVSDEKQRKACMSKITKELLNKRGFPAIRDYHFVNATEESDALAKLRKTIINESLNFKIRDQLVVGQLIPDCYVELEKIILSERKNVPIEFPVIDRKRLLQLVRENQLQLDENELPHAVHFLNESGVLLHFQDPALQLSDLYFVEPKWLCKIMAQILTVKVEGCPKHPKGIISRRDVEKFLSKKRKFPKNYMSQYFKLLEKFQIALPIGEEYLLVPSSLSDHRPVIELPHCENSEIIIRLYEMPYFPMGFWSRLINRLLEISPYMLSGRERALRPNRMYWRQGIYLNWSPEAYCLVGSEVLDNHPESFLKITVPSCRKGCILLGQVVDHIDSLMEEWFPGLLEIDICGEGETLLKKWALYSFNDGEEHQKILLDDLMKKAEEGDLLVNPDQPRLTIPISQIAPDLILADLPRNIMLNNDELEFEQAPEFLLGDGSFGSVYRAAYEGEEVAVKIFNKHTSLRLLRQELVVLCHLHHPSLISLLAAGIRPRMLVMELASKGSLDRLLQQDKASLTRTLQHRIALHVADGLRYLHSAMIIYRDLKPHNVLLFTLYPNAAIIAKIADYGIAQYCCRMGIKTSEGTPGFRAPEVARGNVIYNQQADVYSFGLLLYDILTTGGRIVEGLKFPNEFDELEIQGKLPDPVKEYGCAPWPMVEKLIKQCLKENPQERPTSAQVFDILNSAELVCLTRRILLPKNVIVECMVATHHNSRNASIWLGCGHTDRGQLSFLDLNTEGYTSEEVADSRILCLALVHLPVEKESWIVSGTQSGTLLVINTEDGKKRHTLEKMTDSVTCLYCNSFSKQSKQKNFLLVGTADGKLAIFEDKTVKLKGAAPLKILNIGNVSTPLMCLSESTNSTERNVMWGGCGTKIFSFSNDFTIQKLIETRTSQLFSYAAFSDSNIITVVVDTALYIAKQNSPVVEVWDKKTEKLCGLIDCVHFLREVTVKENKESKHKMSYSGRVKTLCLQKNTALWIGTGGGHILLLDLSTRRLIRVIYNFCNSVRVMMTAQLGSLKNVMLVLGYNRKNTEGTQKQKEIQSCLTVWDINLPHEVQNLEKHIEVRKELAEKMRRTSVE
Experimental: Microscale thermophoresis (MST) experiments were performed for determining equilibrium binding affinities (KD) of Nbs binding to FL-LRRK2. Therefore, Nb were site-specifically labelled at their C-terminus with m-TAMRA, using Sortase-mediated peptide exchange. The Nbs were recloned into a pHEN29 vector which is subsequently used to express and purify the Nbs with a C-terminal LPETGG-His₆-EPEA tag. Exchange of the latter peptide with an m-TAMRA-labeled GGGYK peptide (GenicBio, Shanghai, China) was performed using Sortase, and unlabeled Nb and unincorporated peptide were removed using a Ni-NTA and SEC purification step, respectively. […] After incubation at 4° C. for 30 mins, samples were loaded in capillaries and measurements were performed at 25° C. using 50-70% LED power and 80% laser intensity (laser on-time: 30 s, laser off-time: 5 s). All experiments were performed in triplicate.

[2] = target: T5, Full-length human Leucine-rich repeat …; assay: BLI; Nb on LRRK2 trapped on streptavidin sensor via biotinylated Nb40; steady-state fit
Experimental: To determine the binding affinity (dissociation constant KD) of the ten Nbs for LRRK2, two methods were used in parallel: microscale thermophoresis (MST) and bio-layer interferometry (BLI). For the MST experiment, we site-specifically labeled the ten Nbs with a m-TAM RA fluorophore at its C-terminus, using sortase-mediated coupling, and then titrated increasing amounts of full-length LRRK2 to these Nbs (FIGS. 13A-13E).
Biolayer interferometry (BLI) measurements were performed using an Octet Red96 (Forte Bio, Inc.) system in a buffer containing 50 mM HEPES pH 8.0, 150 mM NaCl, 10 mM MgCl₂, 5% glycerol, 0.1% BSA, 0.05% Tween, at 25° C. and with shaking speed 1000 rpm. […] The biotinylated Nbs were first loaded on pre-equilibrated SA biosensors at a concentration of 5 μg/mL. This Nb-loaded sensor was then used to trap FL-LRRK2 from a 50 nM LRRK2 solution. […] All experiments were performed in triplicate.

[3] = target: T1, LRRK2 Roc domain construct; assay: ELISA, antigen coated on the plate, purified Nb detected via its EPEA tag
From the text: (§1) We recombinantly expressed and purified the RocCOR, Roc, COR-B and kinase-WD40 (K-WD40) domain constructs of LRRK2 (FIG. 7). Subsequently, we performed an ELISA in which all these domain constructs were coated in parallel next to each other in the same ELISA plate, and where we subsequently detected binding of the 42 purified Nbs. […] To enrich in Nbs directed against the Roc domain we specifically included a selection step with either Roc-GTPγS or Roc-GDP.

[4] = target: T2, LRRK2 RocCOR domain construct; assay: as above
From the text: as §1

[5] = target: T6, LRRK2 COR-B construct (C-terminal part of the COR domain), His6-MBP tagged (human, UniProt Q5S007 1672-1840); assay: as above
T6 construct: also called (MBP-)COR-B; not shown: N-terminal His6-MBP-tag of pDEST-566
From the text: as §1

Functional Group (see FIG. 2d) (LRRK2(G2019S); classification by effect on in cellulo LRRK2(G2019S) kinase activity)	Kd [1] [nM]	Kd [2] [nM]	binding result [3]	binding result [4]	binding result [5]	Molecule	colocalization with endogenous LRRK2 on phagosomes (endogenous LRRK2)	influence on LRRK2 kinase activity compared to the controls (LRRK2(G2019S); HEK 293T cells co-expressing LRRK2(G2019S), Rab29 and Nb-GFP, Western blot)
Group 4	–	–	–	–	–	Nb39: LRRK2-specific Nanobody, SEQ ID NO: 10 (protein, Nanobody CA14134) VHH: MAQVQLVESGGGLVQAGGSLRLSCRASGGTFSTYAMGWFRQVPGKERETVAAVKWSGDMTYYADSVKGRFTISRDNAKNTVYLQMNSLRPEDTAVYYCAARRGLSYYRGPSEYDYWGQGTQVTVSS	LRRK2 recruitment to phagosomes was slightly detectable	no influence on LRRK2 kinase activity
–	145	76	no binding (tested: not given)	no binding (tested: not given)	no binding (tested: not given)	Nb22 (CA13611) (VHH) VHH: QVQLVESGGGLVQAGGSLRLSCAASGRTFSSYTMGWFRQAPGKEREFVAAIRWSGGSTYYADSVKGRFTISRDNAKNTVYLQMNSLKPEDTAVYYCAASDRGGFIATSGGWMDYWGKGTQVTVSS	–	–
